In publication PMC9020517:

What was measured:
Parkin = Parkin (UniProt O60260); assay: Strep-Tactin pull-down, anti-Parkin blot; details: reference: unmodified Strep-NEDD8; sites S65
HDAC6 = HDAC6 (UniProt Q9UBN7); assay: Strep bait enrichment from lysate, Western blot; details: reference: unmodified Strep-NEDD8; sites S65

NEDD8 1-76 (from UniProt Q15843) Strep-pNEDD8 (pS65)
binding against the reference (Parkin): stronger
binding against the reference (HDAC6): stronger
